Results: patent US7906616B2, “Truncated DANCE, DANCE complex and method of using these” (Kansai Medical University, priority 2004, dated 2011)
Substitutions are numbered along the chain they refer to.

How the values were obtained:
[1] = system: DANCE-specific protease; experiment: Inhibition of DANCE cleavage by protease inhibitors in transfected 293T cells; format: cell-based; conditions: 293T cells expressing human DANCE, serum-free medium with inhibitor, 48 hours; Western blotting with anti-FLAG M2
Procedure: 293T cells were used in expression experiments. Transfection was performed using the Lipofect AMINE Plus reagent as directed in the product instructions. 24 hours after transfection, the medium was exchanged with serum-free medium, and cultivation was continued for 48 hours; the resulting supernatant or cell lysate was used for Western blotting and in vitro binding assay.
A human DANCE cDNA with FLAG tag and 6×His tag added to the carboxyl terminus thereof was transfected to 293T cells; the cells were cultured using a serum-free medium comprising a cysteine protease inhibitor (E64) or serine protease inhibitor (aprotinin) for 48 hours; a recombinant protein was precipitated from the culture supernatant using Ni-NTA agarose and was developed by SDS-PAGE and Western blotting was performed using anti-FLAG M2 antibody.

[2] = target: T1, DANCE (Bos taurus, UniProt Q5EA62); experiment: Precipitation of DANCE-binding proteins from smooth muscle cell culture supernatant (homo-complex); conditions: 50 μg recombinant human DANCE mixed with 35S-labeled bovine arterial smooth muscle cell supernatant, anti-FLAG precipitation
T1 construct: After bovine arterial smooth muscle cells seeded on a 9-cm plate were labeled with 35S-Met and Cys for 24 hours; host or cells: bovine arterial smooth muscle cells (culture supernatant); bait purified from stably transfected 293T cells
T1 sequence (Q5EA62 24-448): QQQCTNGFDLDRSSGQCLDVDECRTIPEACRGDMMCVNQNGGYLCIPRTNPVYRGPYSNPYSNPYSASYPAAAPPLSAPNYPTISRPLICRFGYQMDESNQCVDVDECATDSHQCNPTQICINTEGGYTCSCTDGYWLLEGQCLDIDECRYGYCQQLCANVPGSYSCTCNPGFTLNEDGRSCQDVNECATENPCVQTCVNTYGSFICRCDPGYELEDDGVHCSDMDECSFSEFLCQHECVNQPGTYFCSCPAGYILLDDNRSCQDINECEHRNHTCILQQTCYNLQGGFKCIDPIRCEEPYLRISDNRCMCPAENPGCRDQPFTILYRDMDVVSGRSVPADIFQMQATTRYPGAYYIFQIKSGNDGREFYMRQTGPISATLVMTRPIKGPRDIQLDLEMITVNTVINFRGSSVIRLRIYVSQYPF
T1 sequence (Q9UBX5 24-448 partner): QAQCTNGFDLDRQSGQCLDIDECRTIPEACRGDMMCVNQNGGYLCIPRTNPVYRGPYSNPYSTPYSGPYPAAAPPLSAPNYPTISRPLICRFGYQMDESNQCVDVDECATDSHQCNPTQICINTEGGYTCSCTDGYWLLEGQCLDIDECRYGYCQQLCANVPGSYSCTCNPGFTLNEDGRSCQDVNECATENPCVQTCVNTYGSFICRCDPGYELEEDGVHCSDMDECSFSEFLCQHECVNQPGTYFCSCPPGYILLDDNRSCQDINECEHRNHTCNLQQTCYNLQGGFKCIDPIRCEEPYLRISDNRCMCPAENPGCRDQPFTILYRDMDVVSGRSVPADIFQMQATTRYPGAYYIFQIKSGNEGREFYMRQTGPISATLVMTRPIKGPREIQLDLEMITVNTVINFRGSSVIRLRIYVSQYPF
Procedure: (§1) After bovine arterial smooth muscle cells seeded on a 9-cm plate were labeled with 35S-Met and Cys for 24 hours, the culture supernatant and 50 μg of recombinant human DANCE (with C-terminal FLAG and 6×His) were mixed and precipitated with anti-FLAG agarose (Sigma), and the resulting precipitate was developed by SDS-PAGE and autoradiography was performed. The same culture supernatant was immunoprecipitated with commercially available antibodies against elastic fiber constituent protein (elastin, fibrillin 1, fibrillin 2 and LTBP2), and developed with the same SDS-PAGE gel, and autoradiography was performed.

[3] = target: T2, LTBP2 (Bos taurus, UniProt Q28019); experiment: Precipitation of DANCE-binding proteins from smooth muscle cell culture supernatant (LTBP2); conditions: 50 μg recombinant human DANCE mixed with 35S-labeled bovine arterial smooth muscle cell supernatant, anti-FLAG precipitation
T2 construct: host or cells: bovine arterial smooth muscle cells (culture supernatant); bait purified from stably transfected 293T cells
T2 sequence (Q28019 36-1842, one chain of several): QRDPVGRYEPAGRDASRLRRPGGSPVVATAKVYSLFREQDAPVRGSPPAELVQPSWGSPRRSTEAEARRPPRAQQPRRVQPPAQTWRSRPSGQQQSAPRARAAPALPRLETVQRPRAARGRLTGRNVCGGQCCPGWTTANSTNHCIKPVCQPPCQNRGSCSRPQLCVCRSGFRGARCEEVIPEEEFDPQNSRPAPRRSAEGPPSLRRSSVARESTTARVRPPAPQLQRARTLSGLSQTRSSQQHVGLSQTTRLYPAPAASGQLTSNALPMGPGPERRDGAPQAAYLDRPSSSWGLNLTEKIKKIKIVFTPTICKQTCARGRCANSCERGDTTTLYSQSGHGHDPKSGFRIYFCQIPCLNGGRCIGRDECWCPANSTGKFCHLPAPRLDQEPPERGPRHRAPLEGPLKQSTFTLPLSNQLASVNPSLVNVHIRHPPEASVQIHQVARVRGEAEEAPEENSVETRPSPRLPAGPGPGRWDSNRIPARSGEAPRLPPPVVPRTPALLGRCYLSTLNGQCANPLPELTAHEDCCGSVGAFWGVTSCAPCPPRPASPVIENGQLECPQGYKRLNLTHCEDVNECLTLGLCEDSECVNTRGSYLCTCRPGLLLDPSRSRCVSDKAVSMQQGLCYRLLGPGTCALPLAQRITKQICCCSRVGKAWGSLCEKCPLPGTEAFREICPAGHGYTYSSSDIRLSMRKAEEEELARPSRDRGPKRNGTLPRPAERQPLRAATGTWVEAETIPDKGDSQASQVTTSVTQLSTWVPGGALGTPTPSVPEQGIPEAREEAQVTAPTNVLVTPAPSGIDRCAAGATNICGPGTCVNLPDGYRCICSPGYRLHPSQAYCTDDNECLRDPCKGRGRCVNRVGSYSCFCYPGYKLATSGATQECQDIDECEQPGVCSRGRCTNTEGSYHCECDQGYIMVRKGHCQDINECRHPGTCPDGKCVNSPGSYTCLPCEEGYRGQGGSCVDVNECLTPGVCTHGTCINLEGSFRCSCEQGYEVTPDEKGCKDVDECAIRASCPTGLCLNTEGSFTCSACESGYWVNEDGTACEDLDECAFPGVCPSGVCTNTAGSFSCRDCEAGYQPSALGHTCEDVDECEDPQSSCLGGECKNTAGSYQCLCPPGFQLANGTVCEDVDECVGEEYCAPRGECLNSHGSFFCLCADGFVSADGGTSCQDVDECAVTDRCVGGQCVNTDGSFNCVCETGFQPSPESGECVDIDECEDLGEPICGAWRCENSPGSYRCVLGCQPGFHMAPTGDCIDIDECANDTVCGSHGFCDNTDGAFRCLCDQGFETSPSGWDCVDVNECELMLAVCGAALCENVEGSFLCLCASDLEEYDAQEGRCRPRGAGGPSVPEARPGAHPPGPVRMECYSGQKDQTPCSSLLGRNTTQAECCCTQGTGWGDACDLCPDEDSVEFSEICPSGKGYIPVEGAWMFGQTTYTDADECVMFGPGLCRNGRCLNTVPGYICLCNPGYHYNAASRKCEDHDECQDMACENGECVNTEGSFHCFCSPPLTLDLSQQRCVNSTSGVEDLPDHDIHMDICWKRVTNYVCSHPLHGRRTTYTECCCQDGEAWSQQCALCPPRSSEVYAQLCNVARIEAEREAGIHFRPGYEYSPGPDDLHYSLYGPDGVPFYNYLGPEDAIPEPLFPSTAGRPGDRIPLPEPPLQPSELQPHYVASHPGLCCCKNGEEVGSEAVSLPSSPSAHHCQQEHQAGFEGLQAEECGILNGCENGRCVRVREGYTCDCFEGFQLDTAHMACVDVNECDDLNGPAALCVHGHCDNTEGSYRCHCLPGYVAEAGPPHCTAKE
Procedure: as §1

[4] = target: T3, human lysyl oxidase (Homo sapiens, UniProt P28300); experiment: In vitro binding assay, DANCE with lysyl oxidase; conditions: anti-FLAG precipitation, anti-Myc detection
T3 construct: The 22nd amino acid to the 417th amino acid of the polypeptide (417 amino acids) encoded by human lysyl oxidase; expressed in transfected cells
T3 sequence (P28300 22-417): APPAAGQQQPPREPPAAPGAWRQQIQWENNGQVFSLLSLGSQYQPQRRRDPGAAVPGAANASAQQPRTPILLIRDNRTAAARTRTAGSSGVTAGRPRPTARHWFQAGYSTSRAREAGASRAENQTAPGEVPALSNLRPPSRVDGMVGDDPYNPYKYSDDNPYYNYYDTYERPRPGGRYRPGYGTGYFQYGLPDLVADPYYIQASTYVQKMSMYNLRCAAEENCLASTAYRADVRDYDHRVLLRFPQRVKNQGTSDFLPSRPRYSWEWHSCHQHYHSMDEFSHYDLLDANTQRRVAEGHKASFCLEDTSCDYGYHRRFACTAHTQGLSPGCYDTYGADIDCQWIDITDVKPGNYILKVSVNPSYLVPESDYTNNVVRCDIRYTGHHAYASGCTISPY
T3 sequence (Q9UBX5 24-448 partner): T1 sequence (Q9UBX5 24-448 partner)
Procedure: The 22nd amino acid to the 417th amino acid of the polypeptide (417 amino acids) encoded by human lysyl oxidase (GenBank accession number: AF039291.1) cDNA was amplified by a PCR method and incorporated in the XbaI/NotI site of pEF6/ssMyc.
A human DANCE construct with FLAG tag (FIG. 8), a human DANCE construct with Myc tag, and a human LTBP2 construct were separately transfected to 293T cells. After cultivation in serum-free medium for 48 hours, each culture supernatant and cell extract were mixed, and this was used as the protein solution. A protein solution from the DANCE construct with FLAG tag and a protein solution from DANCE or LTBP2 with Myc tag were mixed on ice for 1 hour, and precipitated with anti-FLAG antibody, and the resulting precipitate was developed by SDS-PAGE, and detected using anti-Myc antibody or anti-FLAG antibody.
The assay was performed in the same manner as Example 6 except that a precipitate obtained using anti-FLAG antibody was developed by SDS-PAGE and detected using anti-Myc antibody.

[5] = system: vascular endothelial cells; experiment: Vascular endothelial cell adhesion assay; format: cell-based; conditions: purified recombinant protein used for coating
From the text: Full-length DANCE promotes the adhesion and extension of vascular endothelial cells via cell surface integrin. The present inventor has reported to date that full-length DANCE can serve as a ligand for the integrins αvβ3, αvβ5, and α9β1. Since the domain serving as the ligand is considered to be around the RGD motif of the amino-terminal domain of DANCE, each recombinant protein of a DANCE mutant wherein RGD was replaced with RGE for one-amino-acid substitution (RGE DANCE), and amino-terminal cleaved form of DANCE (ΔND DANCE) were purified, and these, along with full-length DANCE, were subjected to vascular endothelial cell adhesion assay (FIG. 13).

[6] = system: human skin fibroblasts; experiment: Formation of elastic fibers in cultured human skin fibroblasts; format: cell-based
Procedure: Human fibroblasts were kindly supplied by the Department of Plastic Surgery, Kyoto University Hospital. A cover glass was placed on the bottom of a 24-well plate, on which human fibroblasts were seeded at 7.5×10^4 cells per well, and cultured in a DMEM medium supplemented with 10% FBS at 37° C. in the presence of 5% CO2. After the plate washed with PBS on Day 3, the medium was exchanged with a DMEM/F12 medium not supplemented with FBS, and purified DANCE protein, cleaved form of DANCE protein 4 μg/ml, or FBS was added. Cultivation was continued at 37° C. in the presence of 5% CO2, and the cells were fixed and immunologically stained on Day 14.
On Day 14 of cultivation, the cells were washed with 1 ml of PBS three times, after which they were fixed with 100% methanol at −20° C. for 30 minutes. After washing with PBS, the cells were subjected to blocking with a PBS containing 2% BSA at room temperature for 30 minutes, after which the cells were incubated with the polyclonal anti-elastin antibody (dilution rate 1/100) and the monoclonal anti-FLAG antibody (dilution rate 1/100) at room temperature for at least 1 hour. The cells were washed with PBS and further incubated with the anti-rabbit Alexa Fluor 488 antibody (dilution rate 1/100) and the anti-mouse Alexa Fluor 546 antibody (dilution rate 1/100) at room temperature for 1 hour. After washing with PBS, the cells were fixed with 4% para-formaldehyde at room temperature for 10 minutes and again washed with PBS, after which the sample was mounted onto a glass slide using a DAPI-containing Vectashield. Examination was performed using a confocal microscope.
Human skin fibroblasts were seeded to reach confluency; the medium was replaced with serum-free medium or a medium containing 10% fetal calf serum; the cells were cultured for 2 weeks; the formation of elastic fibers was analyzed by immunostaining with anti-elastin antibody.

[7] = system: DANCE-specific protease; experiment: Cleavage of mutated versus normal form of DANCE expressed in 293T cells; format: cell-based, human; conditions: Arg77 substituted with Ala, serum-free medium 48 hours, Western blotting with anti-FLAG M2
From the text: The 77th amino acid of human DANCE, arginine, was substituted with alanine using the Quick Change in vitro mutagenesis kit (Stratagene). The other procedures were the same as pEF6-hDANCE-FLAG.
An expression vector for the mutated form of DANCE resulting from the substitution of the 77th arginine of DANCE with alanine (with C-terminal FLAG and 6×His tag) (FIG. 7), and an expression vector for normal form of DANCE (with C-terminal FLAG and 6×His tag) were transfected to 293T cells; the cells were cultured using serum-free medium for 48 hours; a recombinant protein was precipitated from the culture supernatant using Ni-NTA agarose, and developed by SDS-PAGE, and Western blotting was performed using anti-FLAG M2 antibody.

Molecule: CC(C)C[C@H](NC(=O)[C@H]1O[C@@H]1C(=O)O)C(=O)NCCCCN=C(N)N [E64]
- inhibition of the cleavage of DANCE [1]: not inhibited

Molecule: aprotinin
- inhibition of the cleavage of DANCE [1]: inhibited

B1: DANCE: secretory protein (developmental arteries and neural crest EGF-like; fibulin-5), SEQ ID NO:2 or 4; recombinant human form with C-terminal FLAG and 6×His (protein, listed as Homo sapiens)
chain: MPGIKRILTVTILALCLPSPGNAQAQCTNGFDLDRQSGQCLDIDECRTIPEACRGDMMCVNQNGGYLCIPRTNPVYRGPYSNPYSTPYSGPYPAAAPPLSAPNYPTISRPLICRFGYQMDESNQCVDVDECATDSHQCNPTQICINTEGGYTCSCTDGYWLLEGQCLDIDECRYGYCQQLCANVPGSYSCTCNPGFTLNEDGRSCQDVNECATENPCVQTCVNTYGSFICRCDPGYELEEDGVHCSDMDECSFSEFLCQHECVNQPGTYFCSCPPGYILLDDNRSCQDINECEHRNHTCNLQQTCYNLQGGFKCIDPIRCEEPYLRISDNRCMCPAENPGCRDQPFTILYRDMDVVSGRSVPADIFQMQATTRYPGAYYIFQIKSGNEGREFYMRQTGPISATLVMTRPIKGPREIQLDLEMITVNTVINFRGSSVIRLRIYVSQYPF
modifications: C-terminal FLAG and 6xHis tags
notes: secretory protein (developmental arteries and neural crest EGF-like); recombinant human form with C-terminal FLAG and 6×His
- formation of a homo-complex [2]: forms a homo-complex
- binding to LTBP2 [3]: binds to LTBP2
- binding to lysyl oxidase [4]: suggested to bind to lysyl oxidase
- cell adhesion activity [5]: cell adhesion was promoted with dependence on the concentration of the protein used for coating
- formation of elastic fibers (anti-elastin immunostaining) ([6]; protein added to serum-free medium at 4 μg/ml, cultured for 2 weeks): elastic fibers were formed at a higher level than with the serum-containing medium
- localization of the added recombinant protein (anti-FLAG antibody) ([6]; serum-free medium, 4 μg/ml): co-localized with the elastic fibers formed

B2: mutated form of DANCE: mutated form of DANCE resulting from the substitution of the 77th arginine of DANCE with alanine (protein, UniProt Q9UBX5 24-448, looked up, variant R77A)
Fibulin-5: T1 sequence (Q9UBX5 24-448 partner) with R54A
- resistance to cleavage with a protease [7]: exhibit resistance to cleavage with a protease

B3: RGE DANCE: DANCE mutant wherein RGD was replaced with RGE for one-amino-acid substitution (protein)
chain: T1 sequence (Q9UBX5 24-448 partner) with D33E
modifications: left off: small tags and cut ends
notes: DANCE mutant wherein RGD was replaced with RGE for one-amino-acid substitution
- cell adhesion activity [5]: almost no cell adhesion activity
